Earlier results in PMC12692597.

Target: IL-13 (Homo sapiens) (UniProt P35225)
UniProt P35225, sequence (P35225 25-146): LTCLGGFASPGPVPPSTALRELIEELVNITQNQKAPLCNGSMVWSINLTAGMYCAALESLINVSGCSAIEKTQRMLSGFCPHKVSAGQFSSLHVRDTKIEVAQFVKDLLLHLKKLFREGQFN

Kd: 0.02 nM
Substance: IL-13Rα2 (from UniProt Q14627)
